Drawing on the RNAGym collection of RNA variant scans (doi:10.1093/molbev/msab373), this text covers reverse-splicing fitness for 84 variants.

B1: Azoarcus group I ribozyme (parent)
chain: GUGCCUUGCGCCGGGAAACCACGCAAGGGAUGGUGUCAAAUUCGGCGAAACCUAAGCGCCCGCCCGGGCGUAUGGCAACGCCGAGCCAAGCUUCGGCGCCUGCGCCGAUGAAGGUGUAGAGACUAGACGGCACCCACCUAAGGCAAACGCUAUGGUGAAGGCAUAGUCCAGGGAGUGGCGAAAGUCACACAAACCGG

The variants in the series derive from B1. Kind of series: reverse-splicing fitness (ratio to wild type); higher = more active; in vitro selection; Mg2+ level not given. In short, it runs like this:
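An in vitro group I ribozyme library with randomized positions was T7-transcribed and gel-purified. In triplicate, 10 pmol RNA in EPPS pH 7.5 was reacted with 50 pmoles of a 30-nt RNA substrate for 1 h at 37 °C across several added MgCl2 levels (1–48 mM), then stopped with EDTA. Products were reverse transcribed from a substrate-complementary primer, PCR-amplified and sequenced (HiSeq 4000). Fitness is a variant's read proportion after selection over that before, normalised to wild type.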
In the case of A120U A145G C150U C169A U176C, the reverse-splicing fitness was 0.00469.
Turning to A120U A145G C150U C169A U176A, the reverse-splicing fitness came to 0.00538.
Consider A120U A145G C150U C169A U176G, for which the reverse-splicing fitness is 0.00258.
As to A120U A145G C150A C169U U176C, the reverse-splicing fitness was 0.032.
Take A120U A145G C150A C169U U176G: the reverse-splicing fitness was 0.00424.
Turning to A120U A145G C150A C169U U176A, the reverse-splicing fitness came out at 0.0235.
For A120U A145C C150G C169G U176G, the reverse-splicing fitness was found to be 0.00252.
A120U A145C C150G C169G U176C: the reverse-splicing fitness is 0.00281.
A120U A145C C150G C169G U176A: the reverse-splicing fitness amounted to 0.00551.
As to A120U A145U C150A C169G, the reverse-splicing fitness was 0.0282.
On to A120U A145U C150A C169U, for which the reverse-splicing fitness was determined as 0.0358.
On to A120U A145U C150A C169A, for which the reverse-splicing fitness worked out at 0.00309.
On to A120U A145C C150U, for which the reverse-splicing fitness worked out at 0.459.
The figure for A120U A145C C169U U176G is 0.0133.
For A120U A145C C169U U176A the value was 0.0854.
As for A120U A145C C169U U176C, the reverse-splicing fitness is 0.1.
The figure for A120U A145U C150U U176C is 0.552.
The figure for A120U A145U C150U U176A is 0.608; for A120U A145U C150U U176G it is 0.206; for A120U C169A U176A it is 0.00399.
The figure for A120U C169A U176C is 0.00594.
In the case of A120U C169A U176G, the reverse-splicing fitness was 0.00204.
On to A120U A145U U176C, for which the reverse-splicing fitness worked out at 0.642.
The figure for A120U A145U U176A is 0.681; for A120U A145U U176G it is 0.328.
As to A120U C150G C169G U176G, the reverse-splicing fitness came to 0.00248.
For the variant A120U C150G C169G U176C, the reverse-splicing fitness is 0.0024.
For A120U C150G C169G U176A the value was 0.00487; for A120U A145G C150A C169G U176A, 0.012.
As to A120U A145G C150A C169G U176G, the reverse-splicing fitness was 0.00259.
Consider A120U A145G C150A C169G U176C, for which the reverse-splicing fitness was determined as 0.0214.
As to A145C C169A U176G, the reverse-splicing fitness was found to be 0.00461.
On to A145C C169A U176A, for which the reverse-splicing fitness stood at 0.029.
Take A145C C169A U176C: the reverse-splicing fitness amounted to 0.05.
With A120U A145G, the reverse-splicing fitness came out at 0.837.
Consider A120U A145U, for which the reverse-splicing fitness is 0.89.
Turning to A120U A145U C150A C169A U176A, the reverse-splicing fitness was 0.0027.
On to A120U A145U C150A C169A U176C, for which the reverse-splicing fitness was found to be 0.00256.
Consider A120U A145U C150A C169A U176G, for which the reverse-splicing fitness was found to be 0.00156.
For A120U A145G C150G C169U U176C the value was 0.0205.
For the variant A120U A145G C150G C169U U176G, the reverse-splicing fitness was found to be 0.0045.
Consider A120U A145G C150G C169U U176A, for which the reverse-splicing fitness stood at 0.00909.
As to A120U C150A C169G, the reverse-splicing fitness is 0.0291.
Regarding A120U C150A C169U, the reverse-splicing fitness worked out at 0.038.
A120U C150A C169A: the reverse-splicing fitness came out at 0.00484.
Regarding A120U A145G C150A U176A, the reverse-splicing fitness turned out to be 0.222.
In the case of A120U A145G C150A U176C, the reverse-splicing fitness was 0.218.
Consider A120U A145G C150A U176G, for which the reverse-splicing fitness came out at 0.063.
For A145G C150G C169A U176G the value was 0.00779.
Take A145G C150G C169A U176A: the reverse-splicing fitness was 0.0133.
The figure for A145G C150G C169A U176C is 0.0194; for A120U C169G U176C it is 0.0915; for A120U C169G U176G it is 0.00332.
In the case of A120U C169G U176A, the reverse-splicing fitness was determined as 0.0354.
For A120U A145U C150G the value was 0.267; for A120U A145U C150A, 0.215; for A120U A145U C150U, 0.785.
With A120U A145U C169G, the reverse-splicing fitness is 0.256.
A120U A145U C169U: the reverse-splicing fitness came to 0.261.
For A120U A145U C169A, the reverse-splicing fitness was 0.0173.
A145G C150A C169U U176A: the reverse-splicing fitness was found to be 0.0484.
On to A145G C150A C169U U176C, for which the reverse-splicing fitness stood at 0.0583.
The figure for A145G C150A C169U U176G is 0.00772.
As to A145C C169G U176C, the reverse-splicing fitness was determined as 0.116.
With A145C C169G U176A, the reverse-splicing fitness is 0.0744.
As to A145C C169G U176G, the reverse-splicing fitness is 0.00875.
Take A120U A145U C150A C169G U176A: the reverse-splicing fitness stood at 0.00797.
The figure for A120U A145U C150A C169G U176C is 0.0122; for A120U A145U C150A C169G U176G it is 0.00216; for A145C C150G it is 0.525.
Take A145C C150U: the reverse-splicing fitness is 0.695.
The figure for A145C C150A is 0.321; for A145G C150G U176A it is 0.256.
Turning to A145G C150G U176C, the reverse-splicing fitness is 0.371.
The figure for A145G C150G U176G is 0.0658; for A120U C150G C169A U176A it is 0.00468; for A120U C150G C169A U176G it is 0.00242.
Turning to A120U C150G C169A U176C, the reverse-splicing fitness was found to be 0.00332.
A120U A145C C150G C169U U176C: the reverse-splicing fitness was 0.00753.
As for A120U A145C C150G C169U U176G, the reverse-splicing fitness is 0.00273.
For A120U A145C C150G C169U U176A, the reverse-splicing fitness was found to be 0.00626.
Take A145G C150U C169A U176C: the reverse-splicing fitness is 0.0527.
Consider A145G C150U C169A U176A, for which the reverse-splicing fitness was found to be 0.0281.
The figure for A145G C150U C169A U176G is 0.00628.
